Legend:
[1] = target: β-amyloid (Aβ) overexpressed in nerve cells (UniProt P05067); experiment: Co-IP from N2a cells, relative score
[2] = target: β-amyloid (Aβ) overexpressed in nerve cells (UniProt P05067); experiment: cell-based or functional assay

Chain of Peptide 5 (β 1-5 fragment of SOD1), NABi (Natural Amyloid β Binder and Amyloid β aggregation inhibitor) (P00441 2-91): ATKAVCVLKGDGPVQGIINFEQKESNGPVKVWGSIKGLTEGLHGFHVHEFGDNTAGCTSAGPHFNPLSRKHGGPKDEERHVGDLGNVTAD

Substance | Binding strength with β-amyloid [1] | fluorescence recovery after photobleaching (FRAP) of Aβ in N2a cells, within 20 seconds [2] | fluorescence recovery after photobleaching (FRAP) of Aβ in N2a cells, within 90 seconds [2]
Peptide 2 (β 2-7/T fragment of SOD1) (from UniProt P00441 16-145) | 3.5 |  | 
Peptide 5 (β 1-5 fragment of SOD1), NABi (Natural Amyloid β Binder and Amyloid β aggregation inhibitor) | 1 | 50% | 75%
Peptide 3 (β 4-6 fragment of SOD1) (from UniProt P00441 40-114) | 0 |  | 
Peptide 6 (β 5-8 fragment of SOD1) (from UniProt P00441 81-154) | 0 |  | 
